Consider two substances from patent US20190201496A1.

The target of the assay is mβ2m. Description: SPR; pH 6.

As to Human AFP N-His, the Kd was 280 nM.
The value for Mouse AFP N-His was 1030 nM.
